Experimental data taken from PMC10499821 (2023).
Where no end group is shown, it is not given here. The star is where a group is joined. FITC = O=C1OC2(c3ccc(O)cc3Oc3cc(O)ccc32)c2ccc(NC(=S)*)cc21

B1: Nsp9 (natural protein)
chain: NNELSPVALRQMSCAAGTTQTACTDDNALAYYNTTKGGRFVLALLSDLQDLKWARFPKSDGTGTIYTELEPPCRFVTDTPKGPKVKYLYFIKGLNNLNRGMVLGSLAATVRLQ

Experiments:
Nsp9 [1] = target: B1; assay: FP
Nsp3 Ubl1 = Nsp3 Ubl1 (SARS-CoV-2, UniProt P0DTD1 819-2763); assay: FP
Nsp9 [2] = target: Nsp9
Nsp3 ADRP = Nsp3 ADRP (SARS-CoV-2, UniProt P0DTD1 819-2763); assay: FP
Nsp3 SUD-M = Nsp3 SUD-M (SARS-CoV-2, UniProt P0DTD1 819-2763); assay: FP
RIF1 1780-1795 = assay: FP
MCM9 796-811 = assay: FP
MVB12A 166-180 = assay: FP
NEK9 737-751 = assay: FP

Binder PAHPDGFALGRAPLA [LMTK3_(22–36)] has a Kd (Nsp9 [1]) of 34 µM.

In the case of DAALALLLLDRLNQLE [N_(216–231) peptide], the Kd (Nsp3 Ubl1) is reported as 64 µM.

AEGIDIGEMPSYDLVL [NKRF_(8–23)] showed a Kd (Nsp9 [1]) of 50 µM.

DIGLLPSPGETGVPWR [MCM9 796-811] showed a Kd (Nsp9 [2]) of about 3200 µM.

In the case of FQGAWLGCPEPWEPLL [NOTCH4 1605-1620], the Kd (Nsp9 [2]) is reported as 125 µM.

{FITC}-PGHSPADYLRFQDLVL [FITC-DYRK1B 394-409] was tested, and the Kd (Nsp16) was 3.2 µM.

Binder GSTYLHPLSELLGIPL [MBOAT1_(16–31)] has a Kd (Nsp3 ADRP) of 104 µM.

For CPSLSEEILRCLSLHD [NYNRIN_(1031–1046)], the Kd (Nsp3 Ubl1) was 150 µM.

Binder MQGLSLDAASQPSKGY [MVB12A 166-180] has a Kd (Nsp9 [2]) of 450 µM.

For FTEEDLHFVLYGVTPS [PRDM14_(197–213)], the Kd (Nsp3 SUD-M) was 37 µM.

MNIQEQGFPLDLGAS [AXIN1_(1–15)] was tested, and the Kd (Nsp9 [1]) was 49 µM.

MNIQEQGFPLDLGASY [AXIN1 1-15] showed a Kd (Nsp9 [2]) of 49 µM.

In the case of B1, the Kd (RIF1 1780-1795) is reported as 88 µM, the Kd (MCM9 796-811) is reported as about 3200 µM and the Kd (MVB12A 166-180) is reported as 450 µM. For the same binder, the Kd (NEK9 737-751) was 111 µM.

In the case of SDEGALLDQLYLALRN [NCOA2_(1074–1089)], the Kd (Nsp3 Ubl1) is reported as 26 µM.

Work on YPAHPDGFALGRAPLA [LMTK3 22-36] yielded a Kd (Nsp9 [2]) of 34 µM.

{FITC}-AVWTQEHDAILEHFAQ [FITC-DNAH2 92-107] gave a Kd (Nsp8) of about 190 µM.

SSGLSIGTVFQSSSPY [NEK9 737-751] was tested, and the Kd (Nsp9 [2]) was 111 µM.

NPYSEGQFLDEHHSVN [RIF1 1780-1795] showed a Kd (Nsp9 [2]) of 88 µM.
